Measurements reported in patent US20200385425A1.

Target: PDZ1/2 domain (Homo sapiens (Human)), P78352
Test: SPR, Biacore 3000, PDZ1/2 amine-coupled on CM5 chip, peptide as analyte, 1:1 binding model

Chain of PDZ1/2 domain (Homo sapiens (Human)), P78352 (P78352 65-246 limits assumed): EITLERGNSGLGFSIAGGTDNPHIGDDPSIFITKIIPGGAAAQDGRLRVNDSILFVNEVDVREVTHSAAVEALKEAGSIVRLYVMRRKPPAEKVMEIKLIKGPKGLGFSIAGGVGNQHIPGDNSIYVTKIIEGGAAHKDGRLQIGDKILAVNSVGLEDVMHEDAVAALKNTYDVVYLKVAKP

YGRKKRRQRRRYEKLSSIESDV (modifications not checked) [chimeric peptide YE-NA-1]
Kd: 54.4 nM
